The record followed here is patent publication US20190233823 (AEROVIRUS TECHNOLOGIES INC., published 2019).

For the data set, the target named is P97 cilium adhesin ectodomain fragment (P97 peptidic complex, SELEX target section 768-925) (Mycoplasma hyopneumoniae). The data set can be described thus: ELONA. Particulars: tags: His (histidine labelled, Ni-NTA captured). The protocol:
Selected ssDNA molecules from each individual clone were biotinylated using the B-T3 which is same sequence with 5′ primer (T3 primer), and Klenow fragment (2 unit/ml). To prepare single stranded biotin conjugated APT3Cooc10 aptamer for the reverse screening. T3 Primer was Biotin labelled. A 96-well flat bottom ELISA plate was prepared by coating each well with 100 μl of streptavidin (100 μg/ml) diluted in 0.1 M NaHCO₃ following by a 37° C. overnight incubation. Following several washings with PBS, wells were blocked with 200 μl of PBS containing 1% BSA for 2 hours at room temperature and subsequent washing three times with PBS-T (10 mM PBS containing 0.05% (v/v) Tween-20). Thereafter, 100 μl of 2.5 pmole/100 μl biotinylated-ssDNA were added to the wells and incubated at 37° C. for 2 hours followed by washing four times with PBS-T. T3 primer was used as negative control. Following washing, 100 μl of fluid containing 2 μg histidine labelled P97 peptidic complex were added to the indicated wells and incubated at 37° C. for 2 hours. The wells were then washed for 4 times with PBS-T. The reverse screening assay was completed using the DAKO Mycoplasma Hyopneumoniae ELISA tests (K004311-9 kit, Oxoid Ltd, UK).

B1: APT3Cooc10 (ssDNA)
DNA: GCCTGTTGTGAGCCTCCTAACGGGTATGACTACAGATGCAGGGCGGCCTGTAGCCTTGCATTGACAAGGGCATGCTTATTCTTGTCTCCC
In the case of B1, the binding result is reported as “binds”.

B2: APT3Cooc3 (ssDNA)
DNA: GCCTGTTGTGAGCCTCCTAACTAGCTCGTAGAAAAAAAATATAGCGTGTGCTGGGACTGCTCGGGATTGCGGACACATGCTTATTCTTGTCTCCC
B2: the binding result is “binds”.

B3: APT3Histo1 (ssDNA)
DNA: GCCTGTTGTGAGCCTCCTAACCGCACGTGGGTATTCTAAGTGCGGTAGCTCAATGGTGAGCGATGAGCATCATGCTTATTCTTGTCTCCC
For B3, the binding result is listed as “binds”.
